# B1: 341G2 (anti-CD40 mAb; isotype not stated for these experiments) (antibody, V domains shown)
# VH: QVQLQQSGPGLVKPSQTLSLTCAISGDSVSSNSATWNWIRQSPSRDLEWLGRTYYRSKWYRDYVGSVKSRIIINPDTSNNQFSLQLNSVTPEDTAIYYCTRAQWLGGDYPYYYSMDVWGQGTTVTVSS
# VL: EIVLTQSPATLSLSPGERATLSCRASQSVSSYLAWYQQKPGQAPRLLIYDASNRATGIPARFSGSGSGTDFTLTISSLEPEDFAVYYCQQRSNTFGPGTKVDIK
# notes: 341G2 heavy chain; 341G2 light chain; also called bleselumab; source: produced either from hybridoma cells or by transient expression in CHO cells, purified on protein A columns; copies: 2 + 2
# B2: 341G2 hIgG4 (parental 341G2) (antibody, V domains shown)
# VH: B1 VH
# VL: B1 VL
# notes: 341G2 heavy chain variable domain; human IgG4 heavy chain constant region (pEE6.4 vector encoding the isotype); may stand in SASBDB SASDHN8; IgG4; also called 341G2 h4; bleselumab; source: produced either from hybridoma cells or by transient expression in CHO cells, purified on protein A columns; copies: 2 + 2
# B3: 341G2 hIgG1 (antibody, V domains shown)
# VH: B1 VH
# VL: B1 VL
# notes: 341G2 heavy chain variable domain; human IgG1 heavy chain constant region (pEE6.4 vector encoding the isotype); may stand in SASBDB SASDHN8; IgG1; also called 341G2 h1; hIgG1 variant of 341G2; source: produced either from hybridoma cells or by transient expression in CHO cells, purified on protein A columns; copies: 2 + 2
# B4: 341G2 F(ab) (Fab, V domains shown)
# VH: B1 VH
# VL: B1 VL
# notes: may stand in the SASBDB entry of the CD40-341G2 F(ab) complex; may stand in SASBDB SASDHN8; also called F(ab) fragment of 341G2 hIgG1; source: digestion of 341G2 hIgG1 with papain-agarose, protein A depletion of IgG1 and Fc, purified by SEC
# How the values were obtained:
# [1] = molecular target: T1, His-tagged recombinant soluble full-length extracellular domain (EC) of hCD40 (Homo sapiens, UniProt P25942); experiment: far-Western, overlay or dot blot; western blot: His-tagged recombinant CD40 proteins run on 18% polyacrylamide gels, transferred to nitrocellulose, incubated with the anti-CD40 mAb at 4°C overnight, detected with goat anti-human IgG-HRP; details: both partners purified
# T1 construct: CD40, human, wild-type full-length extracellular (EC) domain (CRD1-4); Used in the western blot and, as 'hCD40 EC domain', in the SEC/SEC-SAXS complex with 341G2 F(ab); also called hCD40 EC domain; CD40EC; source: FreeStyle 293F, transfected (pcDNA3.1), purified from supernatant (Ni-NTA)
# [2] = molecular target: T2, hCD40 truncated variant CRD3-4 expressed on CHO-k1 cells (Homo sapiens, UniProt P25942, point mutant); experiment: flow cytometry on cells; CHO-k1 cells expressing full-length hCD40 or truncated variants CRD2-4 or CRD3-4 incubated with 10 μg/mL anti-CD40 mAb; bound mAb detected by anti-human Fc-PE; details: one partner purified
# T2 construct: CD40, human, truncated variant CRD3-4 (lacks CRD1 and CRD2), with the CD40 transmembrane domain of the vector; source: CHO-k1, stably transfected (pCIpuro), on cells
# [3] = molecular target: T3, hCD40 truncated variant CRD2-4 expressed on CHO-k1 cells (Homo sapiens, UniProt P25942, point mutant); experiment: as above; details: one partner purified
# T3 construct: CD40, human, truncated variant CRD2-4 (lacks CRD1), with the CD40 transmembrane domain of the vector; source: CHO-k1, stably transfected (pCIpuro), on cells
# [4] = molecular target: T4, full-length hCD40 expressed on CHO-k1 cells (Homo sapiens, UniProt P25942); experiment: as above; details: one partner purified
# T4 construct: CD40, human; results call it the full-length CD40 molecule; methods: wild-type full-length extracellular (EC) domain (CRD1-4) cloned into pCIpuro that contains the CD40 transmembrane domain for membrane anchoring; also called full-length CD40 molecule; CRD1-4; source: CHO-k1, stably transfected (pCIpuro), on cells
# [5] = molecular target: T5, hCD40 (immobilised for SPR) (Homo sapiens, UniProt P25942); experiment: SPR; Biacore T100; hCD40 immobilised on a CM5 chip by amine coupling; mAbs injected at 250, 50, 10, 2, 0.4 and 0 nM in HBS-EP+, 30 μL/min, 300 s association, 300 s dissociation; 1:1 Binding model; details: both partners purified
# T5 construct: CD40, human
# CD40 on Ramos cells = molecular target: T6, CD40 on Ramos cells (Homo sapiens (Ramos cells), UniProt P25942); experiment: flow cytometry on cells; Ramos cells incubated with a fixed concentration of CD40L and various concentrations of anti-CD40 mAbs; remaining bound CD40L detected by anti-FLAG-APC; details: one partner purified
# T6 construct: CD40 on the surface of Ramos cells; also called CD40-expressing Ramos cells; source: endogenous, on Ramos cells
# [6] = molecular target: T1, His-tagged recombinant soluble …; experiment: SEC; 341G2 F(ab) and hCD40 EC domain mixed at a 1:1 molar ratio for 1 hour, complex purified by SEC; then SEC-SAXS on Superdex 200 increase 3.2/200 in PBS, 20°C; details: both partners purified
# T1 sequence (P25942 21-193): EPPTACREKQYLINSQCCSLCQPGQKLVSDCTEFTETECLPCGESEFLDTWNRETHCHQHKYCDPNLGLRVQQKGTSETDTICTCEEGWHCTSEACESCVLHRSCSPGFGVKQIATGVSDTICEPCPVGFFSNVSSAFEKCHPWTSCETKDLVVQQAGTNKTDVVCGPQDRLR
# T6 sequence (P25942 21-277): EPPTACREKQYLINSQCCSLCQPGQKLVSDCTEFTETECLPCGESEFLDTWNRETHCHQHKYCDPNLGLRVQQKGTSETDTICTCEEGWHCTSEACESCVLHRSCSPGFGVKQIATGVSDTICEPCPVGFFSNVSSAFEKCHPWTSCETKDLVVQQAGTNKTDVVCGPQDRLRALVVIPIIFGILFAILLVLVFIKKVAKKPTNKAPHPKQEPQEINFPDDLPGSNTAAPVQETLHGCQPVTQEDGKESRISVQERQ
# T5 sequence (P25942 21-277): as above
# T4 sequence (P25942 whole entry, looked up, the tested form may be a part): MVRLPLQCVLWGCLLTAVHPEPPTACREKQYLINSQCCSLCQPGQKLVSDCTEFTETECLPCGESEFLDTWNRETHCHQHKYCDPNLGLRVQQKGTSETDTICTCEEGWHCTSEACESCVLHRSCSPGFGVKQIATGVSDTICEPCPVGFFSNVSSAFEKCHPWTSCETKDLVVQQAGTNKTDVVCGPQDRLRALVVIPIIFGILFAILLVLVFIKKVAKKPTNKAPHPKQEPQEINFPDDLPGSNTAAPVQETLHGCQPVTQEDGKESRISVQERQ
# T3 sequence (P25942 whole entry, looked up, change not shown, the tested form may be a part): as the sequence (P25942 whole entry, looked up, the tested form may be a part) above
# T2 sequence (P25942 whole entry, looked up, change not shown, the tested form may be a part): as the sequence (P25942 whole entry, looked up, the tested form may be a part) above
binder,measurement,setting,value
B1,binding result,[1],binds
same,binding result,[2],no binding (tested: 10 μg/mL)
same,binding result,[3],no binding (tested: 10 μg/mL)
same,binding result,[4],binds
B2,binding result,[5],binds
same,binding result,CD40 on Ramos cells,binds
B3,binding result,CD40 on Ramos cells,binds
B4,binding result,[6],binds

# Source: PMC7280789, “Isotype Switching Converts Anti-CD40 Antagonism to Agonism to Elicit Potent Antitumor Activity” (Cancer Cell, 2020)
